Reference: patent US20220356210A1, “A SERIES OF INJECTABLE HYDROGELS SELF-ASSEMBLED FROM SHORT PEPTIDES FOR VARIOUS BIOMEDICAL APPLICATIONS” (Agency for Science, Technology and Research, priority 2019, published 2022)
No end group written: not given here.

Legend:
[1] = Gelation by vial tilting method; type: physicochemical
Procedure: The peptide powder was dissolved in water or other aqueous solutions at the required concentrations. Alternatively, the required salt may be added after the peptide aqueous solution is prepared. The hydrogel was formed by mixing the peptide aqueous solution and salt (if required). For example, the solution was vortexed and then incubated to form hydrogel. The hydrogel formed may be stored as formed, or may be dried, for example by freeze drying. Alternatively, the hydrogel may be formed as required. The gelation time was determined by the vial tilting method. […] Rheology experiments were performed at room temperature using a control-strain rheometer (ARES G2, TA instruments). The rheometer is equipped with two sensitive force transducers for torque ranging from 0.05 μN·m to 200 mN·m. The peptide powder was dissolved in water at concentrations ranging from 1.0 to 2.0 (w/v) %. The solution was vortexed and then incubated to form hydrogel. The gel was placed onto parallel-plate geometry (8 mm in diameter). The dynamic storage modulus (G′) and loss modulus (G″) were examined as a function of frequency from 1 to 100 rad/s. The measurements were carried out at a strain amplitude (y) to ensure the linearity of viscoelasticity. Flow sweep (viscosity changes as a function of shear rate) was also performed to study shear thinning properties of hydrogels.

[2] = Rheology, G′ and G″ at frequency of 1 Hz; type: physicochemical; conditions: incubated at 37° C. overnight
Procedure: The gelation time was determined by the vial tilting method. […] Rheology experiments were performed at room temperature using a control-strain rheometer (ARES G2, TA instruments). The rheometer is equipped with two sensitive force transducers for torque ranging from 0.05 μN·m to 200 mN·m. […] The solution was vortexed and then incubated to form hydrogel. The gel was placed onto parallel-plate geometry (8 mm in diameter). The dynamic storage modulus (G′) and loss modulus (G″) were examined as a function of frequency from 1 to 100 rad/s. The measurements were carried out at a strain amplitude (y) to ensure the linearity of viscoelasticity. Flow sweep (viscosity changes as a function of shear rate) was also performed to study shear thinning properties of hydrogels.

[3] = Dynamic step strain amplitude test; type: physicochemical; conditions: 2.0 (w/v) % in water
From the text: The reduction of viscosity was attributed to the disruption of physical cross-links between the peptide molecules upon the application of shear stress. In order for a peptide gel construct containing a drug and/or cell/s to be delivered by syringe, it is essential that the disrupted gel with low viscosity could rapidly recover back into a stiff gel when the shear stress terminates. The ability of the peptide hydrogels to recover was investigated using a dynamic step strain amplitude test, where strain of 0.5% and 100% were periodically applied on the peptide hydrogels. […] After subjected 30 s of continuous high strain, the strain was reduced to 0.5%. […] This reversibility of peptide hydrogel in the presence of DMEM was further evaluated under the same conditions. […] The G′ value is reduced remarkably by ˜2000 times to ˜1 Pa when subjected a high stain of 100%. […] A similar phenomenon was also observed for IIK12 hydrogel, where the storage moduli of IIK12 hydrogel increased with increasing peptide concentrations (Table 5). […] This rheological behavior of the peptide hydrogels offers a great advantage for use as an injectable matrix for delivery of therapeutics such as drugs and cells. The fast recovery kinetics can be explained by the fact that the physical cross-links of the gel network immediately recovered after the high strain terminated.

C. albicans = experiment: Antimicrobial activity of peptide hydrogels (OD and agar plating); type: cell-based; conditions: control gel, IIK12 at 1%, no antimicrobial peptide
Procedure: (§1) Hydrogels for the antimicrobial assays were prepared in 96-well tissue culture plates (NUNC). Briefly, IIK12 (1%) with various contents of antimicrobial peptides was dissolved in water and vortexed. 50 μL of solution was transferred to the wells. Gelation occurred overnight at 37° C. The growth of microorganisms on hydrogels was measured using a broth dilution method. Briefly, 30 μL of microorganism suspension (3.5×10^5 CFU/mL) was introduced onto the hydrogels, and a 96-well plate and peptide hydrogel without antimicrobial peptides were used as controls. The optical density readings of bacterial solutions were monitored by measuring OD600 nm. The assay was performed in four replicates for each sample and the experiments were repeated at least three times. Antimicrobial activity was further tested through a spread plate method. Briefly, hydrogels were challenged with microorganism solution, at the end of treatment, microbial suspension on the hydrogel surface was withdrawn and diluted sequentially, and then plated on 1.5% LB agar plates. The plates were incubated for 24 h at 37° C. (48 h at room temperature for C. albicans). Microbial colonies were formed and counted. The experiments were performed in triplicate and were repeated three times.

E. coli = experiment: as above; type: cell-based; conditions: control gel, IIK12 at 1%, no antimicrobial peptide
Procedure: as §1

S. aureus [4] = experiment: as above; type: cell-based; conditions: control gel, IIK12 at 1%, no antimicrobial peptide
Procedure: as §1

S. aureus [5] = experiment: Killing kinetics test; type: cell-based; conditions: 24 h of incubation
Procedure: The microbes were treated with peptide hydrogels as described above. At various time periods of treatment, the microbial samples were diluted for plating (LB Agar, 1st Base). Incubation conditions: 18 h, 37° C. for bacteria. The colony-forming units were counted after the incubation period. The experiment was repeated in independent settings three times.

S. aureus [6] = experiment: Disk diffusion assay; type: cell-based; conditions: hydrogel cast on inoculated agar, one day at 37° C.
Procedure: Antimicrobial activity was further tested through a disk diffusion assay. Briefly, microbial suspension (S. aureus, ATCC No. 6538) with 3.5×10^6 CFU/mL (40 μL) was spread on 1.5% LB agar plates. Disks (Sigma) were prepared to contain 50 μL of peptides with various concentrations by dripping 50 μL of peptides solutions onto a sterile disk. Disks were air-dried for several minutes before being placed onto different zones in the agar plates. Hydrogels (100 μL) were placed onto LB agar plates. The plates were incubated for 24 h at 37° C.

[7] = system: human dermal fibroblasts (HDFs); experiment: In vitro cytotoxicity, MTT assay; type: cell-based; conditions: 2000 μg/mL, 24 h
Procedure: (§2) 1000 μL of HDFs or keratinocytes (10^5 cells per mL) were seeded onto the 12-well Transwell plates (Corning). IIK12 (1%) with various contents of antimicrobial peptides were dissolved in water and incubated at 37° C. overnight and 100 μL of gels were then transferred to the inserts of the Transwell plate. 1 mL of fresh medium was added into the inserts. The plates were incubated for 24 h before proceeding to MTT assay. It is noted that cells without any treatment and Mupirocin (GSK) were used as controls. The data were expressed as mean and standard deviation of three replicates and the tests were repeated 3 times.

[8] = system: human primary keratinocytes; experiment: In vitro cytotoxicity, MTT assay; type: cell-based; conditions: 24 h
Procedure: as §2

IRIKIEIEIRIK (IRIKIEIEIRIK-NH2) [IIK12]
Lowest concentration at which hydrogels self-assembled ([1]; aqueous solution): 0.6 (w/v) %
Gelation in DI water at 37° C. (via tilting) ([1]; peptide conc. 0.6, 1.0 %): Gel
G′ (storage modulus) ([2]; 0.6 wt %, H2O): 65 Pa
G″ (loss modulus) ([2]; 0.6 wt %, H2O): 7 Pa
G′ (storage modulus) ([2]; 0.8 wt %, H2O): 131 Pa
G″ (loss modulus) ([2]; 0.8 wt %, H2O): 24 Pa
G′ (storage modulus) ([2]; 1.0 wt %, DMEM): 1206 Pa
G″ (loss modulus) ([2]; 1.0 wt %, DMEM): 176 Pa
G′ (storage modulus) ([2]; 1.0 wt %, H2O): 279 Pa
G″ (loss modulus) ([2]; 1.0 wt %, H2O): 48 Pa
G′ (storage modulus) ([2]; 1.5 wt %, H2O): 598 Pa
G″ (loss modulus) ([2]; 1.5 wt %, H2O): 66 Pa
G′ (storage modulus) ([2]; 2.0 wt %, H2O): 865 Pa
G″ (loss modulus) ([2]; 2.0 wt %, H2O): 69 Pa
Rheological behavior in dynamic step strain amplitude measurement [3]: reversible rheological behavior
Killing of the microbes (OD measurement and agar plating) (C. albicans): ineffective
Killing of the microbes (OD measurement and agar plating) (E. coli): ineffective
Killing of the microbes (OD measurement and agar plating) (S. aureus [4]): ineffective
Log (CFU) (S. aureus [5]): 9.28
S. aureus colony formation on agar in contact with gel (S. aureus [6]): ineffective

C/C(=C\C(=O)OCCCCCCCCC(=O)O)C[C@@H]1OC[C@H](C[C@@H]2O[C@H]2[C@@H](C)[C@H](C)O)[C@@H](O)[C@H]1O [Mupirocin, reference compound]
Cell viability [7]: more than 80%
Cell viability [8]: 80-90%
